Measured values published in ChEMBL document CHEMBL1140664, “Asymmetrical ligand binding by abscisic acid 8'-hydroxylase” (Bioorg Med Chem, 2007).

Substrate: CC1=CC(=O)CC(C)(C)[C@@]1(O)/C=C/C(C)=C\C(=O)O
Assay: Activity of Arabidopsis thaliana recombinant CYP707A3

B1: Abscisic acid 8'-hydroxylase 3 (Arabidopsis thaliana) (protein)
chain: MDFSGLFLTLSAAALFLCLLRFIAGVRRSSSTKLPLPPGTMGYPYVGETFQLYSQDPNVFFAAKQRRYGSVFKTHVLGCPCVMISSPEAAKFVLVTKSHLFKPTFPASKERMLGKQAIFFHQGDYHSKLRKLVLRAFMPDAIRNMVPHIESIAQESLNSWDGTQLNTYQEMKTYTFNVALISILGKDEVYYREDLKRCYYILEKGYNSMPINLPGTLFHKAMKARKELAQILANILSKRRQNPSSHTDLLGSFMEDKAGLTDEQIADNIIGVIFAARDTTASVLTWILKYLADNPTVLEAVTEEQMAIRKDKKEGESLTWEDTKKMPLTYRVIQETLRAATILSFTFREAVEDVEYEGYLIPKGWKVLPLFRNIHHNADIFSDPGKFDPSRFEVAPKPNTFMPFGSGIHSCPGNELAKLEISVLIHHLTTKYRWSIVGPSDGIQYGPFALPQNGLPIALERKP
Km: 0.71 µM
